Experiment [1] has as its target HIV-1 Env of the BG505 strain (on pseudovirus) (HIV-1).
The target in experiment [2] is panel of 208 geographically and genetically diverse HIV-1 Env pseudoviruses.
Experiment [3] shares this target. This is another data set of the same source.
Experiment [4] has as its target HIV-1 Env of pseudovirus Q259.17 (clade A) (HIV-1).
The target of experiment [5] is HIV-1 Env of pseudovirus CH038.12 (clade BC) (HIV-1).
Experiment [6] addresses HIV-1 Env of pseudovirus 16936-2.21 (clade C) (HIV-1).
Experiment [7] deals with HIV-1 Env of pseudovirus CAP256.206.C9 (clade C) (HIV-1).
The target in experiment [8] is HIV-1 Env of pseudovirus 191821.E6.1 (clade D) (HIV-1).
Experiment [9] addresses HIV-1 Env of pseudovirus 246-F3.C10.2 (clade AC) (HIV-1).
Experiment [10] addresses HIV-1 Env of the BG505 strain (on pseudovirus) (HIV-1). The source holds these as a separate data set.
Experiment [11] has as its target HIV-1 Env of pseudovirus ZM233.6 (clade C) (HIV-1).
Experiment [12] deals with HIV-1 Env of the BG505 strain (on pseudovirus) (HIV-1). This is another data set of the same source.
Experiment [13] addresses HIV-1 Env of pseudovirus ZM233.6 (clade C) (HIV-1). This is another data set of the same source.

Read-outs that look alike come from different tables or passages of the source.

In the case of PGT145 N(100l)D (antibody), in experiment [1], the IC50 is 0.003 µg/mL and the IC80 was determined as 0.01 µg/mL.

B1: PGT145 (antibody, V domains shown)
VH: QVQLVQSGAEVKKPGSSVKVSCKASGNSFSNHDVHWVRQATGQGLEWMGWMSHEGDKTGLAQKFQGRVTITRDSGASTVYMELRGLTADDTAIYYCLTGSKHRLRDYFLYNEYGPNYEEWGDYLATLDVWGHGTAVTVSS
VL: EVVITQSPLFLPVTPGEAASLSCKCSHSLQHSTGANYLAWYLQRPGQTPRLLIHLATHRASGVPDRFSGSGSGTDFTLKISRVESDDVGTYYCMQGLHSPWTFGQGTKVEIKR
In experiment [2], B1 came in with a % of viruses neutralized, IC50 50 µg/mL of 75%; a Mean IC50 (geometric mean, samples with IC50 < 50 µg/mL) of 0.086 µg/mL; a Median IC50 (samples with IC50 < 50 µg/mL) of 0.053 µg/mL. In experiment [3], this molecule had a % of viruses neutralized, IC80 < 1.0 µg/mL of 39%; a Mean IC80 (geometric mean, samples with IC80 < 50 µg/mL) of 0.343 µg/mL; a Median IC80 (samples with IC80 < 50 µg/mL) of 0.276 µg/mL. In experiment [4], this molecule came in with an IC50 (WT) of 45 µg/mL. In experiment [5], this molecule returned an IC50 (WT) of 46.5 µg/mL. The same molecule displayed an IC50 (WT) in experiment [6] of 5.14 µg/mL. The same molecule came in with an IC50 (WT) in [7] of 3.95 µg/mL. Further, the IC50 (WT) in experiment [8] amounted to 3.35 µg/mL. The molecule further came in with an IC50 (WT) in experiment [9] of 17.4 µg/mL. In experiment [1], this molecule came in with an IC50 of 0.01 µg/mL and an IC80 of 0.253 µg/mL.

B2: PG9RSH N(100f)Y (antibody, V domains shown)
VH: ERLVESGGGVVQPGSSLRLSCAASGFDFSRQGMHWVRQAPGQGLEWVAFIKYDGSEKYHADSVWGRLSISRDNSKDTLYLQMNSLRVEDTATYFCVREAGGPDYRNGYYYYDFYDGYYNYHYMDVWGKGTTVTVSS
VL: QSALTQPASVSGSPGQSITISCQGTSNDVGGYESVSWYQQHPGKAPKVVIYDVSKRPSGVSNRFSGSKSGNTASLTISGLQAEDEGDYYCKSLTSRSHRVFGTGTKLTVLG
Regarding B2, in [2], the % of viruses neutralized, IC50 50 µg/mL is 83%; the Mean IC50 (geometric mean, samples with IC50 < 50 µg/mL) is 0.04 µg/mL; the Median IC50 (samples with IC50 < 50 µg/mL) is 0.025 µg/mL. In experiment [3], this molecule showed a % of viruses neutralized, IC80 < 1.0 µg/mL of 62%; a Mean IC80 (geometric mean, samples with IC80 < 50 µg/mL) of 0.106 µg/mL; a Median IC80 (samples with IC80 < 50 µg/mL) of 0.086 µg/mL. In experiment [10], the IC50 amounted to 0.009 µg/mL and the IC80 turned out to be 0.023 µg/mL. In addition, in [11], the fold decrease in IC50 relative to wild type was found to be 63 fold.

B3: PG9RSH Y(100k)D (antibody, V domains shown)
VH: ERLVESGGGVVQPGSSLRLSCAASGFDFSRQGMHWVRQAPGQGLEWVAFIKYDGSEKYHADSVWGRLSISRDNSKDTLYLQMNSLRVEDTATYFCVREAGGPDYRNGYNYYDFDDGYYNYHYMDVWGKGTTVTVSS
VL: QSALTQPASVSGSPGQSITISCQGTSNDVGGYESVSWYQQHPGKAPKVVIYDVSKRPSGVSNRFSGSKSGNTASLTISGLQAEDEGDYYCKSLTSRSHRVFGTGTKLTVLG
For B3, in experiment [2], the % of viruses neutralized, IC50 50 µg/mL is 87%; the Mean IC50 (geometric mean, samples with IC50 < 50 µg/mL) is 0.035 µg/mL; the Median IC50 (samples with IC50 < 50 µg/mL) was determined as 0.017 µg/mL. Moreover, in [12], the IC50 was 0.004 µg/mL and the IC80 came to 0.01 µg/mL. In [3], this molecule displayed a % of viruses neutralized, IC80 < 1.0 µg/mL of 63%; a Mean IC80 (geometric mean, samples with IC80 < 50 µg/mL) of 0.078 µg/mL; a Median IC80 (samples with IC80 < 50 µg/mL) of 0.058 µg/mL. In experiment [13], this molecule displayed an IC50 (variant) of 0.001 µg/mL; a fold-change in IC50 between wild type and variant of 110 fold.

As a reminder, the IC50 is the concentration that inhibits the measured activity by half. Low readings indicate greater potency in that assay, high ones weaker potency in that assay. As usually defined, the IC80 is the concentration needed for an effect of 80%.

Values taken from patent US20260152546A1.
